B1: Humanised 10G8 H0L0 (antibody, V domains shown)
VH: EVQLVESGGGLVQPGGSLRLSCAASGFTFSNYAMSWVRQAPGKGLEWVATISDGGSFTYYLDNVRGRFTISRDNAKNSLYLQMNSLRAEDTAVYYCARDVGHTTFWYFDVWGRGTLVTVSS
VL: DIVMTQSPDSLAVSLGERATINCRASKSVSAAGYNFMHWYQQKPGQPPKLLIYYASNLESGVPDRFSGSGSGTDFTLTISSLQAEDVAVYYCLHSREFPFTFGGGTKVEIK
B2: Humanised 10G8 H1L3 (antibody, V domains shown)
VH: EMQLVESGGGLVQPGGSLRLSCAASGFTFSNYAMSWVRQAPGKGLEWVATISDGGSFTYYLDNVRGRFTISRDNAKNSLYLQMNSLRAEDTAVYYCARDVGHTTFWYFDVWGRGTLVTVSS
VL: DIVMTQSPDSLAVSLGERATINCRASKSVSAAGYNFMHWYQQKPGQPPKLLIYYASNLESGVPDRFSGSGSGTDFTLTISSLQAEDVAVYYCLHSREFPFTFGGGTNVEIK
B3: Humanised 10G8 H1L2 (antibody, V domains shown)
VH: EMQLVESGGGLVQPGGSLRLSCAASGFTFSNYAMSWVRQAPGKGLEWVATISDGGSFTYYLDNVRGRFTISRDNAKNSLYLQMNSLRAEDTAVYYCARDVGHTTFWYFDVWGRGTLVTVSS
VL: DIVMTQSPDSLAVSLGERATINCRASKSVSAAGYNFMHWYQQKPGQPPKLLIYYASNLESGVPDRFSGSGSGTDFTLTISSLQAEDVVVYYCLHSREFPFTFGGGTKVEIK
B4: Humanised 10G8 H2L0 (antibody, V domains shown)
VH: EVQLVESGGGLVQPGGSLRLSCAASGFTFSNYAMSWVRQAPGKGLEWVATISDGGSFTYYLDNVRGRFTISRDNAKNSLYLQMNSLRAEDTAVYYCARDVGHTTFWYFDVWGSGTLVTVSS
VL: DIVMTQSPDSLAVSLGERATINCRASKSVSAAGYNFMHWYQQKPGQPPKLLIYYASNLESGVPDRFSGSGSGTDFTLTISSLQAEDVAVYYCLHSREFPFTFGGGTKVEIK
B5: Humanised 10G8 H2L3 (antibody, V domains shown)
VH: EVQLVESGGGLVQPGGSLRLSCAASGFTFSNYAMSWVRQAPGKGLEWVATISDGGSFTYYLDNVRGRFTISRDNAKNSLYLQMNSLRAEDTAVYYCARDVGHTTFWYFDVWGSGTLVTVSS
VL: DIVMTQSPDSLAVSLGERATINCRASKSVSAAGYNFMHWYQQKPGQPPKLLIYYASNLESGVPDRFSGSGSGTDFTLTISSLQAEDVAVYYCLHSREFPFTFGGGTNVEIK
B6: Humanised 10G8 H1L0 (antibody, V domains shown)
VH: EMQLVESGGGLVQPGGSLRLSCAASGFTFSNYAMSWVRQAPGKGLEWVATISDGGSFTYYLDNVRGRFTISRDNAKNSLYLQMNSLRAEDTAVYYCARDVGHTTFWYFDVWGRGTLVTVSS
VL: DIVMTQSPDSLAVSLGERATINCRASKSVSAAGYNFMHWYQQKPGQPPKLLIYYASNLESGVPDRFSGSGSGTDFTLTISSLQAEDVAVYYCLHSREFPFTFGGGTKVEIK
B7: Humanised 10G8 H2L2 (antibody, V domains shown)
VH: EVQLVESGGGLVQPGGSLRLSCAASGFTFSNYAMSWVRQAPGKGLEWVATISDGGSFTYYLDNVRGRFTISRDNAKNSLYLQMNSLRAEDTAVYYCARDVGHTTFWYFDVWGSGTLVTVSS
VL: DIVMTQSPDSLAVSLGERATINCRASKSVSAAGYNFMHWYQQKPGQPPKLLIYYASNLESGVPDRFSGSGSGTDFTLTISSLQAEDVVVYYCLHSREFPFTFGGGTKVEIK
B8: Humanised 10G8 H0L3 (antibody, V domains shown)
VH: EVQLVESGGGLVQPGGSLRLSCAASGFTFSNYAMSWVRQAPGKGLEWVATISDGGSFTYYLDNVRGRFTISRDNAKNSLYLQMNSLRAEDTAVYYCARDVGHTTFWYFDVWGRGTLVTVSS
VL: DIVMTQSPDSLAVSLGERATINCRASKSVSAAGYNFMHWYQQKPGQPPKLLIYYASNLESGVPDRFSGSGSGTDFTLTISSLQAEDVAVYYCLHSREFPFTFGGGTNVEIK
B9: Humanised 10G8 H0L2 (antibody, V domains shown)
VH: EVQLVESGGGLVQPGGSLRLSCAASGFTFSNYAMSWVRQAPGKGLEWVATISDGGSFTYYLDNVRGRFTISRDNAKNSLYLQMNSLRAEDTAVYYCARDVGHTTFWYFDVWGRGTLVTVSS
VL: DIVMTQSPDSLAVSLGERATINCRASKSVSAAGYNFMHWYQQKPGQPPKLLIYYASNLESGVPDRFSGSGSGTDFTLTISSLQAEDVVVYYCLHSREFPFTFGGGTKVEIK
B10: Pos 95 Ala (antibody, V domains shown)
VH: EVQLVESGGGLVQPGGSLRLSCAASGFTFSSYAMSWVRQAPGKGLEWVATISDGGSFTYYLDNVRGRFTISRDNAKNSLYLQMNSLRAEDTAVYYCARAVGHTTFWYFDVWGRGTLVTVSS
VL: DIVMTQSPDSLAVSLGERATINCRASKSVSAAGYNFMHWYQQKPGQPPKVLIYYASNLESGVPDRFSGSGSGTDFTLTISSLQAEDVAVYYCLHSREFPFTFGGGTKVEIKR
notes: the same holds for f2 to f171; also called CDRH3 D95>A
B11: Pos 95 Glu (antibody, V domains shown)
VH: EVQLVESGGGLVQPGGSLRLSCAASGFTFSSYAMSWVRQAPGKGLEWVATISDGGSFTYYLDNVRGRFTISRDNAKNSLYLQMNSLRAEDTAVYYCAREVGHTTFWYFDVWGRGTLVTVSS
VL: DIVMTQSPDSLAVSLGERATINCRASKSVSAAGYNFMHWYQQKPGQPPKVLIYYASNLESGVPDRFSGSGSGTDFTLTISSLQAEDVAVYYCLHSREFPFTFGGGTKVEIKR
notes: also called CDRH3 D95>E
B12: Pos 96 Gly (antibody, V domains shown)
VH: EVQLVESGGGLVQPGGSLRLSCAASGFTFSSYAMSWVRQAPGKGLEWVATISDGGSFTYYLDNVRGRFTISRDNAKNSLYLQMNSLRAEDTAVYYCARDGGHTTFWYFDVWGRGTLVTVSS
VL: DIVMTQSPDSLAVSLGERATINCRASKSVSAAGYNFMHWYQQKPGQPPKVLIYYASNLESGVPDRFSGSGSGTDFTLTISSLQAEDVAVYYCLHSREFPFTFGGGTKVEIKR
notes: also called CDRH3 V96>G
B13: Pos 95 Leu (antibody, V domains shown)
VH: EVQLVESGGGLVQPGGSLRLSCAASGFTFSSYAMSWVRQAPGKGLEWVATISDGGSFTYYLDNVRGRFTISRDNAKNSLYLQMNSLRAEDTAVYYCARLVGHTTFWYFDVWGRGTLVTVSS
VL: DIVMTQSPDSLAVSLGERATINCRASKSVSAAGYNFMHWYQQKPGQPPKVLIYYASNLESGVPDRFSGSGSGTDFTLTISSLQAEDVAVYYCLHSREFPFTFGGGTKVEIKR
notes: also called CDRH3 D95>L
B14: Pos 95 His (antibody, V domains shown)
VH: EVQLVESGGGLVQPGGSLRLSCAASGFTFSSYAMSWVRQAPGKGLEWVATISDGGSFTYYLDNVRGRFTISRDNAKNSLYLQMNSLRAEDTAVYYCARHVGHTTFWYFDVWGRGTLVTVSS
VL: DIVMTQSPDSLAVSLGERATINCRASKSVSAAGYNFMHWYQQKPGQPPKVLIYYASNLESGVPDRFSGSGSGTDFTLTISSLQAEDVAVYYCLHSREFPFTFGGGTKVEIKR
notes: also called CDRH3 D95>H
B15: Pos 95 Gln (antibody, V domains shown)
VH: EVQLVESGGGLVQPGGSLRLSCAASGFTFSSYAMSWVRQAPGKGLEWVATISDGGSFTYYLDNVRGRFTISRDNAKNSLYLQMNSLRAEDTAVYYCARQVGHTTFWYFDVWGRGTLVTVSS
VL: DIVMTQSPDSLAVSLGERATINCRASKSVSAAGYNFMHWYQQKPGQPPKVLIYYASNLESGVPDRFSGSGSGTDFTLTISSLQAEDVAVYYCLHSREFPFTFGGGTKVEIKR
notes: also called CDRH3 D95>Q
B16: Pos 95 Gly (antibody, V domains shown)
VH: EVQLVESGGGLVQPGGSLRLSCAASGFTFSSYAMSWVRQAPGKGLEWVATISDGGSFTYYLDNVRGRFTISRDNAKNSLYLQMNSLRAEDTAVYYCARGVGHTTFWYFDVWGRGTLVTVSS
VL: DIVMTQSPDSLAVSLGERATINCRASKSVSAAGYNFMHWYQQKPGQPPKVLIYYASNLESGVPDRFSGSGSGTDFTLTISSLQAEDVAVYYCLHSREFPFTFGGGTKVEIKR
notes: also called CDRH3 D95>G
B17: Pos 95 Met (antibody, V domains shown)
VH: EVQLVESGGGLVQPGGSLRLSCAASGFTFSSYAMSWVRQAPGKGLEWVATISDGGSFTYYLDNVRGRFTISRDNAKNSLYLQMNSLRAEDTAVYYCARMVGHTTFWYFDVWGRGTLVTVSS
VL: DIVMTQSPDSLAVSLGERATINCRASKSVSAAGYNFMHWYQQKPGQPPKVLIYYASNLESGVPDRFSGSGSGTDFTLTISSLQAEDVAVYYCLHSREFPFTFGGGTKVEIKR
notes: also called CDRH3 D95>M

molecular target: T1, Human OSM (human, UniProt P13725 26-221); experiment: BIAcore kinetics, transfection supernatant
T1 construct: Recombinant human OSM; also called hOSM; human Oncostatin M
T1 sequence: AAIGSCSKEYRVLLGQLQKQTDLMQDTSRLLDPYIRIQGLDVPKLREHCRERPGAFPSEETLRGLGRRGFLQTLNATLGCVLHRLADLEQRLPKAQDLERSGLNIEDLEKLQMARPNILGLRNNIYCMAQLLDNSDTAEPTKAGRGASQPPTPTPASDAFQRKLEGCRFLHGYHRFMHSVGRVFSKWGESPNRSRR

B1 and B2 are within 1.5-fold of each other in Kd: 0.435 nM for the first, 0.344 nM for the second.

B3 and B4 are within 1.5-fold of each other in Kd: 0.445 nM for the first, 0.398 nM for the second.

B5 and B6 are within 1.5-fold of each other in Kd: 0.398 nM for the first, 0.425 nM for the second.

B7 and B8 are within 1.5-fold of each other in Kd: 0.387 nM for the first, 0.388 nM for the second.

With B9 the Kd was 0.375 nM.

B1 and B2 are within 1.5-fold of each other in koff: 0.00016 s⁻¹ for the first, 0.000127 s⁻¹ for the second.

B3 and B4 are within 1.5-fold of each other in koff: 0.000163 s⁻¹ for the first, 0.000145 s⁻¹ for the second.

B5 and B6 are within 1.5-fold of each other in koff: 0.00015 s⁻¹ for the first, 0.000162 s⁻¹ for the second.

B7 and B8 are within 1.5-fold of each other in koff: 0.000142 s⁻¹ for the first, 0.000145 s⁻¹ for the second.

Binder B9 has a koff of 0.000137 s⁻¹.

B1 and B2 are within 1.5-fold of each other in kon: 369000 M⁻¹ s⁻¹ for the first, 371000 M⁻¹ s⁻¹ for the second.

B3 and B4 are within 1.5-fold of each other in kon: 365000 M⁻¹ s⁻¹ for the first, 363000 M⁻¹ s⁻¹ for the second.

B5 and B6 are within 1.5-fold of each other in kon: 376000 M⁻¹ s⁻¹ for the first, 381000 M⁻¹ s⁻¹ for the second.

B7 and B8 are within 1.5-fold of each other in kon: 368000 M⁻¹ s⁻¹ for the first, 374000 M⁻¹ s⁻¹ for the second.

B9 gave a kon of 365000 M⁻¹ s⁻¹.

molecular target: T1, Human OSM; experiment: SPR (ProteOn XPR36 or Biacore T100), captured supernatant, OSM as analyte
Procedure: The initial kinetic analyses for the CDRH3 screen were carried out on the ProteOn XPR36 (Biorad Laboratories) and certain supernatants were selected for more accurate kinetic analysis on the BiaCore T100.
For the ProteOn analysis, anti-human IgG (GE Healthcare/Biacore BR-1008-39) was coupled to a GLM chip (Biorad Laboratories 176-5012) by primary amine coupling. The CDRH3 variants were captured directly on to this surface and recombinant human OSM was passed over the captured antibody surface at 256, 64, 16, 4 and 1 nM, with a buffer injection alone (i.e. 0 nM) used to double reference the binding curves. Following the OSM binding event, the capture surfaces were regenerated: with 3M MgCl₂ the regeneration removed the previously captured antibody ready for another cycle of capture and binding analysis. The data was then fitted to the 1:1 model (with mass transport) inherent to the ProteOn analysis software. The run was carried out using HBS-EP (Biacore/GE-Healthcare BR-1006-69) and the analysis temperature was 25° C.
A similar method was used for analysis of constructs using the Biacore T100, anti-human IgG (GE Healthcare/Biacore BR-1008-39) was coupled to a CM5 chip (GE Healthcare/Biacore BR-1006-68) by primary amine coupling, antibodies were captured on this surface and recombinant human OSM was passed over the captured antibody surface at 256, 64, 16, 4 and 1 nM, with a buffer injection alone (i.e. 0 nM) used to double reference the binding curves. Regeneration was by using pulses of 3M 3M MgCl₂ or 100 mM phosphoric acid or using both reagents. The data was fitted to the 1:1 model inherent to the Biacore T100 analysis software. The run was carried out using HBS-EP (Biacore/GE-Healthcare BR-1006-69) and the analysis temperature was 25° C.

B10 and B11 are within 1.5-fold of each other in Kd: 0.576 nM for the first, 0.785 nM for the second.

B12 and B13 are within 1.5-fold of each other in Kd: 0.488 nM for the first, 0.568 nM for the second.

B14 and B15 are within 1.5-fold of each other in Kd: 0.499 nM for the first, 0.57 nM for the second.

B16 and B17 are within 1.5-fold of each other in Kd: 0.517 nM for the first, 0.649 nM for the second.

— US20130251724A1 (GlaxoSmithKline, published 2013)
